Test results: paper PMC3960984 (Nature structural & molecular biology, 2012)
No end group written: not given here.

Molecular target: human LRH-1 LBD (residues 299-541), loaded with DLPC (human, UniProt O00482 299-541)
Assay: fluorescence polarisation

Chain of human LRH-1 LBD (residues 299-541), loaded with DLPC (O00482 299-541): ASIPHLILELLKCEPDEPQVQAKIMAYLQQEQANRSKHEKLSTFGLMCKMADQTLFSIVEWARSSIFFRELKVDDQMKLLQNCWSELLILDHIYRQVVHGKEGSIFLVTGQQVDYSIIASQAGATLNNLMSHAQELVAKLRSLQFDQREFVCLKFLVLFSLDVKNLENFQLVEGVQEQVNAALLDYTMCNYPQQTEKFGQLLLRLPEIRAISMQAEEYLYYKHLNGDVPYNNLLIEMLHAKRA

| binding result | Binder |
| --- | --- |
| binds | EEPSLLKKLLLAPA (also: fluorescein label, position not given here) [fluorescein labeled peptide derived from human PGC-1α NR Box 2] |
| binds | SPSSHSSLTERHKILHRLLQEGSP (also: fluorescein label, position not given here) [fluorescein labeled peptide derived from SRC-1 NR Box 2] |
| binds | PVSPKKKENALLRYLLDKDDT (also: fluorescein label, position not given here) [fluorescein labeled peptide derived from TIF2 NR Box 3] |
